Assay: protease stability score; higher = more stable; yeast display proteolysis, trypsin and chymotrypsin;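 note: relative to predicted unfolded state with 0 unfolded-like and 1 meaning tenfold more protease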

Sequence | protease stability score
DEEKRHDEKLVEDFIHNVLTGDWEKLLRNMDPHARIHVDVGNFREERVGREDWIETLARRKNARFHIESYRIYNGQVDMEVRIEQGDKEHKFKLIIKFVDGVVRSISMQVE | 1.26
DEEKRHHDEWRQFFLDSIKTGNWFELLKMIDPNTKILINGKEFHGRDAMHHFLTELRRRVDHLERFDIHHIDIQGNKAFDDTRLEGRINGVETHIDLLLISTKVNGVWYLKSVELR | 2.13
DEEKRHSDEIIEEWVRSLITGDEKRIRELHDPTTLLNNENEKYHGMEIATELRRRIRENMGIKHSEVRVHDIEWQGDKITIYGRLILRFNGKEVEHELLIVATKINGRWVLRSMRIE | 1.48
DEEKRLLEEAARHMVDSWRTGDEEVIERMMDPHDKLILYINGVNFDLHGREIVSRWIKEELDEIRIRINVEDIKVFNGVAFVDGELRVEINGREKRVKEEIILFIIDGRLKSHEIRRH | 1.23
DEEKRRASELIIHLWHNFLTGNEDRFRELFDPNVKAKLDVGDKSVDHIGRDHVLDWLRLVRHEIRIHHYEHKRERVYGDKWESDGHVDGEFNGRRTETHFEIILVIIDGKLHFLILNFH | -0.076
DEEKRRSHELADLWWEMLETGDWDRTKNLMDPDTRLHIGDKEDHGMENFYRFRKDFESQFPNMRIELKSHRVQGDFFEIKGKINFNGRLVEAEIRVKIVDGRLKEIHVHIK | 0.821
DEEKTIHNHLMELVVRAFLTGDEELWSNLADPDTKEIIDGKTNVGREEVAKFWKDLVHKFKNARWHITIKRVDVIDGQVRQNSHLEIRYGDKHFHLETEDHLYVINGRLKQFEFRVN | 1.18
DEELEMLRRFWEDLLHSAKTGDEELWERLADPNVRVIINGKLFHGRELASHALRELFERVDVIKDVKITDEKRQGDKIHLDIRVHNHYNGKFEDNDLHIVLVKVDGKWFLKSVEFR | 2.12
DEELHHQERLLREFLHAEFTGDEDKLRHLADPRTRSDLEFENVEIVLHGMDEHVKWWEELGFKIDEMRISRIDVVGNFIILDTRVRGHINGQETHFEHHIIINTINGKIHSIRVHTK | 0.735
DEELKALEDLSKKEIEAHLTGDEDTLVQLADPNMKILYNGREFHGWNVWKKISSKMIEEMRLRRVELEHVHVINGQIDSHGILDVEVNGRRVKERMHIVMLKVNGRWLIHSVEYR | 1.27
DEELNEWEEWMRRAMKADETGDEDTVTHMLDPNVKFDIDGVELVGREEFIRFFRELRISFHHFKFDHIRDINGRVRVEGTVHLEIIIGEFRHRDDRRTERIELKINGRWYIHSMKIG | 1.18
DEEMQLAEEMSRKFLHNWHTGDWRIMSHLIDPDVKIIIVVGDKRIELHGRENFVKEIIRWLHHLRETDRRVDHLRIQGDKAHVRVTVHVRYGDKTMDLDEDIRILVVNGKIHSIEIIQV | 1.02
DEENDLMLEMAFKFMHDWLTGDFDKETKLADPDVKYDVGEFRFHGREEVTKWLEDMERSLGIDHQFLNIHDLKVQGDKVHIKGELVLIVNGRKETRRVDLHFEIVDGRMRKVTIEKR | 1
DEENEHAKHLMRELIKSIITGDEEMIDHLADPNMRLRVGDKEWHGREEIQHWLRRLVEEARIHDVELTSVRTIGDKVILDTRVDIKQGDKRKIITLIIIVQKFDGRWIIEEIRIH | 2.57
DEENEHSEKISEEVLHALHTGDWNRLAHLADPHTLLIIEYGDKEIVNHGWEVFVKWILDVFRKVKNIKVHIRDSKVIGDKIHLDVEIHFNGRTTTVHIDITIIDGRLHSIHINHK | 1.8
DEENEILRELHRELVEAWLTGDEELLRRLHDPDVRVHIGDKDLVGMEQMIEDIRFWLRRFDHLRIHIHRVRAINGVIHVDGELQLFQGDKSIRHQVIIELEVVNGRIKNTKFSTI | 1.4
DEENERVHQALRDWRHIHRTGDEESTRHNMDPNARLDVNGVEVHGMEKVSEMFVELRIEHLHLERVHTQGEKVEVHTHVEVRQGDKRQEVKVIIFYIKINGRWFVERFEIH | 0.85
DEENHHTREIFKMTLKEVFTGNEEMTTRLLDPHVRVQVGDKTIHGWKHFTHIFFRLRHEFGVDHVQLRHLEIIGNKAVIHFSVYVGEWTYEFTIHALKVNGRWVLESLEVHQI | 1.5
DEENKHLKEIARRFVEDWETGDEDSLKHMLDPHARVVINGVEVHGREEIIKLFREIFHHIRIDHITVNTVITVNGVAHSHIHIRVDINGQERRHNTELIFVFVDGQVSQIKFETE | 1.24
DEENKSMEEMIRLLTEALRTGDFELIHHLADPRMRILIGDKELHGWESWAQFVVKLGVKHTRIQIDDFRIIDGRINLHTHMEIDIDGRRTSSHTHMETIKVDGRWLITVLKIR | 1.1
DEENKVLEHMIRLIHHDRSTGDEKVLLKLFDPHARFIYHYGDKEIHLHGRKEITDLLVKLHRHIRVDRLHIDHWEFHGDKMHIDHTTRMNVNGREMETRIDLIITIIDGVIHSIEIRQR | 1.19
DEENNIVKLLFHLYVRAIETGDWKTLEKLADPNYRTIFDGKDLHGREHYMRWVRELRVEDIKLNHIHMQGDKLSIDGEIDVRVGDKETRFEVHIIAEKINGRWILRSSIID | 1.82
DEEQEILKEMAKEILHMLQTGDWKRFLELADPNVKNIVNGREVHGREIVVEYIRKMGIDHHILHDVHIQGDKIHIHGTLEVNGKRIEVEIEIVVVNGRVKMIIFILK | 2.05
DEEQEIMEHILEELLRIDWTGDEHVLERLLDPNMQLEFNGVRLVGMEEVQRWLRRFLTEIRIHDFKVHDFHSFNGRLHSDVEVDFQVNGQRHITRVRLNLEVINGVVHRVEVRHE | 2.17
DEEQELLLRIFERWLEFLLTGDEDTMHRLFDPDVKSRIGDFNHHGRELVLEAHQWFLKHARLKEFIRRDIHAINGRINMKGDVRVDVNGQEWEDHIRIHLVVVNGKMREIHIEEK | 1.38

Sequence | protease stability score
DEEQELTEMVFRIIKRLNETGNEEELRRNADPHVRLDWNGVHYHGREVYDHVWNMLGFEIKDTRIRDIRMQGEKIFVDGERRGNINGRTIDTRIIIIIIAVNGRMKEIVIRDL | 1.3
DEEQHRMEEELRKMFEHLFTGDFKWLHKNVDPNARLDIGDKHVHGREAMVELIIRHVESLGVDHVKIRHVEVQGEKIEIRGESKVGDWKFSHHINVIVVDGVHKHFRIENR | 0.684
DEEQKAADRVNQLHTESMLTGDEDEFKHLADPNTKFLINGVEFHGRDTLHRWLSEIRLHHHHFEVKHLNFYGDFVEVEGHVRLVFHVNGRRIDVSTRVRWIIEKVDGRWYVRQIHIN | 1.68
DEEQKEALHFLENLVRSWITGDEETLKRLFDPHYRVHAENRELHGWEDVIHTAVRESEEIRLHHVKIEHLEFVDGQIFIHLNFDIDINGRREHVHTHVILLKINGRWILTKIEFH | 1.38
DEEQNHFFESIKELTHSWRTGDEERVTKLADPNVRLEINGRDIVGMERFSKLMIELRVHDLKIHRIRVVNGKVESDIEMHIHQGDKHSVTETHIFARKVDGKWILESIRIG | 1.07
DEEQQDLIEVVNRYLRAVLTGDEDDLRELLDPHYRIRIGDKEFVGWKEFIRHVREARYTIHRWSVDSVEIIGDKVILYGELDGIEKVNGKTIKKRFEVIFYINKIDGRWHFKHIEFH | 2.29
DEEQRHAHKIVDRLLELIMTGDEDDLYRLADPNTRIDINGKKFHGMDFWFHLLRRVDHFEVEDFSLKRSDRVDGVAELDHRTTIRVIIGDKTIRLEIRHRMWVVKVDGRWKIEEVVIR | 1.04
DEEQRVEEEMAEMQRLWHETGDEESIQKNLDPRTRIVIHINGKEIRLHGREAWLKEVRRLGVKYLRIEDMEVVDGRVHARIHYTVNGVKIRIRVEFYIVDGRMEEIRRHWE | 0.432
DEEQTQMEETVNVVLSAMRTGDEETSKKLADPNVKIRINGREFHGRDFYAHVILMFGIDHIEMRIERYEFQGEKLILRGRLRLEFNGKEETSDVIEIWWKVDGRWHLDNYYEN | 1.37
DEERDEARRVLEIFIKVFRTGDWHILHELADPHVRMDVNGREFIGREDYVKFFRYEMEIFGVERIDIKIHDVHVYNGRIEVHTRQNINGKERDTHLEIHKINGQWHLRDVRIH | 1.44
DEERDETRELLRRLQELLRTGDEEEIRKLADPHVRSDVNGREYHGRDWATHLIMRFDHLDIERIRIFDGRIETDFRVEIGDKTFQTRMHVRKIDGRWNIKEIKII | 1.55
DEERDHLLEISQRIIHSWVTGDWKLFARLIDPHARLIFHFENVDLHYHGREQVVTFIIEMRIQHIDIRRYTVQGNKVHIDGHQKIEIGDKSIRTDSEMNSIIVNGKLHETFLIFK | 1.45
DEEREDIEKVTHILSEIWETGDEHRLHRMLDPNTKVVIDGVEIHGRELIIRFRKELRHKLGLDRIEVDIDHIEVQGDKAISDTSIDYNGREFKVINTVHKYNGRWLVHRIIHE | 0.815
DEEREDVETHLRVLYDLILTGDEEDIRNLLDPHVRLDFNGKDIHGMERVSHHMRELRIERLEIKRWDVVNGRVHMDLHIVFHYGDKRRDTEVHVIMLKIDGRWHLESIHIK | 2.21
DEEREELHRHIKILNKAWTTGDERLLYELMDPHAKINIDGVDFIGREEATEEYHHRWRHLGVDHFEVRFTEIHDIDGRLHMQTKLNLIVNGQREERHTRVHVRKINGRWLVHNLEIR | 0.125
DEEREFSERAIEMSLEDWLTGDEHRMHRMLDPHVRLDIDGRDIIGRERMTKIIFEINKTLGVDHVEFHDHEIQGDKVHSHLDVHINGRRLRITLHLYKIDGRWQIREVKVV | 1.13
DEEREHSEEALLLLLHLIMTGDEEELIKNVDPNARITQGDKEFHGREVVIKHLFELMHRFGVKHFTVDHVEIFNGRLFIRFTLHFNGRKIDEHLILVKINGRWLLKSMEIK | 2.21
DEEREIIETFFRESLEVIKTGDWKTFDDLLDPRARLNIGDKDYHGRHEIVRQWHKQFKDLGVDHIENKDLRIFDGKIETHFDLEVGDKRIHLEFHATKIDGRWLFHEIRVQ | 1.97
DEEREKSELAIKIMKHVWETGDETLKSELFDPNARIHIDGKEIVGREEIEDQLRHIRMHITMFDINSTKFVDGRLEVYLNRRVRLFFDGREIEEEQHIHVVLLKINGRWQLQELEVT | 1.36
DEEREKVIRFLERFQESSRTGDEETLHRLADPNVKLTVDGRELHGREVMVRYAIEWRIEDVEPKRYTEQGDKLILHVRIHTTIGDKHEVREVDLFVRKIDGRWIMEEFRVR | 0.96
DEERELAKWAEEMLRRRFETGNERFWEELADPNTRSDINGVELIGRETVVHFLREEQRHMGVDHTDVKHTNVELQGDKVIVRMDVELHFDGVTVRSTLSYTSIKFNGRWILHSIEHHIH | 1.13
DEERELLDHLAKFILSVVRTGDWESMLRMADPNARIQIDGREYHGMDFFIRHWWELGIDHERIDKIDIQGDKLFIHRTLEYDGQEIDSELYIIVINGKLKSIDIRIR | 0.764
DEERELLKFFLKAWSKALVTGDEQTLLDLVDPNARNVIGDKDLIGREFLEKVLREMRITEVHIEDIKFQGEFVTSDLRMRVRQGDKEFDIRVRLVVYKYDGRWVFKTFHME | 2.23
DEERELLKRFIELWFHAIKTGDEDQLIRLLDPHVRIDINGVDIHGMEKYIHEHLRLERERGFEIRDFKIKHIEIQGEKAHVDTRLSGMVDGRHVDVRNRFIIYKFNGRWIFHSFHVD | 1.24
DEERELTEKLTRKLIHNWLTGDPEAIRRMLDPNVRVIINGQELHGRERFHEHMHHLLRHMRIDHIDIKDWKFQGEKFHIDLHVHGTIDGVHFIHRTESSVIIVNGKIHQMHVHEI | 1.41

From the NTF2 design screens of Basanta et al. (2020)
